Measured values from the supplement of paper PMC10724198.
± gives the standard deviation of the averaged measurements.

Test system: Saccharomyces cerevisiae
Test: protein stability index of tFT-peptide fusion (C-terminal peptide) (PSI (0-1 scale)); higher = more stable (slower turnover)
Conditions: temperature: 30 C
Protocol: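 MPS profiling in S. cerevisiae of the yeast C-terminome library: the last 12 aa of each annotated ORF are fused to the C-terminus of a sfGFP-mCherry timer, after a GGGS linker. Cells are FACS-sorted into 8 mCherry/sfGFP bins and deep-sequenced. PSI runs from 0 (unstable) to 1 (stable); wild type and das1Δ backgrounds, two technical replicates each.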

[1] = genetic background: das1 deletion

| Sequence | protein stability index [1] | protein stability index (genetic background: wild type) |
| --- | --- | --- |
| KDELERVAKSNR [RPS5 C-terminal 12 aa] | 0.6889 ± 0.0032 | 0.694 ± 0.017 |
| KENSRSWIIYLL [YGL034C C-terminal 12 aa] | 0.653 ± 0.016 | 0.556 ± 0.03 |
| KESSTSSEKQIA [THI72 C-terminal 12 aa] | 0.67657 ± 0.00024 | 0.6804 ± 0.0025 |
| KFSTRMKLAHGK [SLX1 C-terminal 12 aa] | 0.698 ± 0.019 | 0.728 ± 0.021 |
| KGIKGFFHRIFD [YGR126W C-terminal 12 aa] | 0.6963 ± 0.002 | 0.68 ± 0.018 |
| KHLAKALADLIS [JHD1 C-terminal 12 aa] | 0.717 ± 0.018 | 0.701 ± 0.032 |
| KICVTLIVNELI [YLR342W-A C-terminal 12 aa] | 0.4662 ± 0.0016 | 0.39 ± 0.028 |
| KIHTAAIAAFKQ [ATP12 C-terminal 12 aa] | 0.7013 ± 0.0055 | 0.612 ± 0.033 |
| KILKGAEKKPQL [CNA1 C-terminal 12 aa] | 0.689 ± 0.0099 | 0.707 ± 0.022 |
| KISTHSNAPSPG [SMA1 C-terminal 12 aa] | 0.669 ± 0.015 | 0.675 ± 0.022 |
| KIWVNIYSTPTS [PLS1 C-terminal 12 aa] | 0.6827 ± 0.0066 | 0.705 ± 0.035 |
| KKKGLFGRMKKK [YMR295C C-terminal 12 aa] | 0.719 ± 0.028 | 0.69 ± 0.067 |
| KKKKPAAEGAAK [TMA22 C-terminal 12 aa] | 0.696 ± 0.026 | 0.708 ± 0.043 |
| KKKSRAKKPGNV [HDA3 C-terminal 12 aa] | 0.685 ± 0.011 | 0.734 ± 0.041 |
| KKKVEFSFPDDI [MIL1 C-terminal 12 aa] | 0.701 ± 0.0087 | 0.73 ± 0.016 |
| KKPLFKRKVLQI [YNL205C C-terminal 12 aa] | 0.6883 ± 0.0025 | 0.422 ± 0.011 |
| KKVQSYTLQEDY [BUD13 C-terminal 12 aa] | 0.695 ± 0.015 | 0.692 ± 0.03 |
| KLDDIIRARRSR [TGL3 C-terminal 12 aa] | 0.7405 ± 0.0066 | 0.692 ± 0.034 |
| KLENDISVKVED [NTG1 C-terminal 12 aa] | 0.6863 ± 0.0054 | 0.674 ± 0.014 |
| KLLEESKGLLDV [YJR079W C-terminal 12 aa] | 0.701 ± 0.023 | 0.699 ± 0.013 |
| KNFQEHLRSING [AGC1 C-terminal 12 aa] | 0.695 ± 0.01 | 0.702 ± 0.032 |

| Sequence | protein stability index [1] | protein stability index (genetic background: wild type) |
| --- | --- | --- |
| KNHEMGEEETKF [TCB1 C-terminal 12 aa] | 0.715 ± 0.0045 | 0.721 ± 0.041 |
| KNNYSSRNSNIY [MSS116 C-terminal 12 aa] | 0.713 ± 0.0098 | 0.711 ± 0.028 |
| KNRKRVLGVAYL [PXP3 C-terminal 12 aa] | 0.783 ± 0.022 | 0.837 ± 0.063 |
| KNWGPKARPNTS [TRM1 C-terminal 12 aa] | 0.698 ± 0.016 | 0.655 ± 0.011 |
| KPIEKVYFNRGI [FSF1 C-terminal 12 aa] | 0.713 ± 0.051 | 0.7368 ± 0.0054 |
| KPIGEAAAIKEK [YLH47 C-terminal 12 aa] | 0.696 ± 0.027 | 0.707 ± 0.044 |
| KQAIYTRATASE [RPS25A C-terminal 12 aa] | 0.693 ± 0.012 | 0.687 ± 0.0034 |
| KQIDVHLDKNKA [GCD7 C-terminal 12 aa] | 0.6862 ± 0.004 | 0.697 ± 0.0038 |
| KQIVFEIPSQTN [RPS7B C-terminal 12 aa] | 0.69872 ± 0.00027 | 0.673 ± 0.0084 |
| KQMYKYHIIVLF [YBL083C C-terminal 12 aa] | 0.305 ± 0.035 | 0.106 ± 0.0037 |
| KRFTTNRNGNVI [GEF1 C-terminal 12 aa] | 0.732 ± 0.022 | 0.696 ± 0.027 |
| KSCVSSLRVMAM [YNL276C C-terminal 12 aa] | 0.608 ± 0.013 | 0.597 ± 0.023 |
| KSEGGDLPHLVQ [SPS4 C-terminal 12 aa] | 0.701 ± 0.024 | 0.68 ± 0.013 |
| KSKFQERLQQGL [RET3 C-terminal 12 aa] | 0.701 ± 0.0071 | 0.6467 ± 0.0052 |
| KVKTKKEEGKER [PXA2 C-terminal 12 aa] | 0.698 ± 0.022 | 0.654 ± 0.0067 |
| KVPPRKDGIKFR [RTS2 C-terminal 12 aa] | 0.728 ± 0.0069 | 0.695 ± 0.018 |
| KWKKNKKRKFTK [UBP10 C-terminal 12 aa] | 0.729 ± 0.024 | 0.6898 ± 0.0066 |
| KWLLKPCIYKRR [RRP8 C-terminal 12 aa] | 0.717 ± 0.0061 | 0.691 ± 0.016 |
| KYLNDEQVKLNV [ADE13 C-terminal 12 aa] | 0.72 ± 0.026 | 0.68 ± 0.035 |
| KYTGVYRSSWHG [YLR125W C-terminal 12 aa] | 0.701 ± 0.0013 | 0.6925 ± 0.0057 |
| KYVTQILYTPLQ [GAL83 C-terminal 12 aa] | 0.692 ± 0.0075 | 0.7144 ± 0.0036 |

| Sequence | protein stability index [1] | protein stability index (genetic background: wild type) |
| --- | --- | --- |
| LAFFKRDFFKGL [NDI1 C-terminal 12 aa] | 0.699 ± 0.02 | 0.569 ± 0.039 |
| LAIEIVLCLKAR [YLR255C C-terminal 12 aa] | 0.331 ± 0.0034 | 0.355 ± 0.019 |
| LALFAGLISALL [GAS3 C-terminal 12 aa] | 0.71854 ± 0.00069 | 0.654 ± 0.0065 |
| LCEFLKGVQSAL [DAK1 C-terminal 12 aa] | 0.7137 ± 0.005 | 0.683 ± 0.011 |
| LCLLFFTFSLFF [GAS4 C-terminal 12 aa] | 0.3594 ± 0.0027 | 0.371 ± 0.016 |
| LDDNELFKNVWS [AGE2 C-terminal 12 aa] | 0.728 ± 0.017 | 0.713 ± 0.017 |
| LDVVKSRGSKHS [HSU1 C-terminal 12 aa] | 0.7099 ± 0.003 | 0.7 ± 0.062 |
| LEKDTRQDTKAN [MCO10 C-terminal 12 aa] | 0.693 ± 0.0045 | 0.671 ± 0.025 |
| LENLSQEYCSEI [YBR096W C-terminal 12 aa] | 0.715 ± 0.029 | 0.72 ± 0.023 |
| LEVYASGNPNAT [NDC1 C-terminal 12 aa] | 0.697 ± 0.016 | 0.692 ± 0.0073 |
| LEWLSNNLKNQS [ARF2 C-terminal 12 aa] | 0.702 ± 0.0047 | 0.714 ± 0.041 |
| LEYLQDTYQVLK [FAR3 C-terminal 12 aa] | 0.702 ± 0.031 | 0.733 ± 0.01 |
| LEYYSNRDNDMN [RIF1 C-terminal 12 aa] | 0.672 ± 0.042 | 0.69 ± 0.026 |
| LFSDKMEPLFKK [AIF1 C-terminal 12 aa] | 0.746 ± 0.018 | 0.738 ± 0.012 |
| LGIVIKRGKSLK [YJU2 C-terminal 12 aa] | 0.7248 ± 0.0027 | 0.738 ± 0.024 |
| LGVVSKMLVTCK [CIA2 C-terminal 12 aa] | 0.303 ± 0.026 | 0.326 ± 0.0041 |
| LIALNRYIEDLH [MRP20 C-terminal 12 aa] | 0.6999 ± 0.0024 | 0.695 ± 0.007 |
| LIEDVNKLKIKA [SOV1 C-terminal 12 aa] | 0.634 ± 0.029 | 0.645 ± 0.025 |
| LISRRREDEERN [YPL216W C-terminal 12 aa] | 0.788 ± 0.038 | 0.726 ± 0.037 |
